Five molecules from patent US20240392002A1 (EXELIXIS, published 2024) can be followed below.

One test has as its target T1, CTLA4 (UniProt P16410 36-161, limits assumed).
T1 sequence (looked up): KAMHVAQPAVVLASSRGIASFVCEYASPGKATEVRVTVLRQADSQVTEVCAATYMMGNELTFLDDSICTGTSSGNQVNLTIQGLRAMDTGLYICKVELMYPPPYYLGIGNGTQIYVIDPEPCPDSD
The test can be described thus: Octet; antigen immobilized, B-Body as analyte. An excerpt: In each instance, the antigen is immobilized and the B-Body is the analyte.
(In general: In BLI a coated tip is dipped into the sample, and binding shifts an interference pattern.)

Test [1] has as its target T2, extracellular domain of human ROR1 (human, UniProt Q01973 30-406).
T2 construct: bought protein; biotinylated in the bivalent assay format; also called Acro Cat. No. RO1-H522y
The test can be described thus: BLI, monovalent format, IgG on Fc biosensor.

The target in test [2] is T2, extracellular domain of human ROR1. The test can be described thus: BLI (Octet QK384), monovalent format: antibody captured on Fc biosensor, untagged antigen as analyte.
Test [3] shares this target. Nature of the test: BLI (Octet), IgG1, two-fold serial dilution 200-12.5 nM. An excerpt:
To measure binding affinity in ROR binder discovery campaigns, the VL and VH domains identified in the phage screen described above were formatted into a bivalent monospecific native human full-length IgG1 architecture and immobilized to a biosensor on an Octet (Pall ForteBio) biolayer interferometer. Soluble ROR antigens, including the extracellular domains of ROR1 (Acro Cat. No. RO1-H522γ) and ROR2 (Acro Cat. No. R02-H52E5), as well as the individual ROR1 Frizzled (Acro Cat. No. RO1-H5222), Ig-like (Acro Cat. No. RO1-H5221), and Kringle (Acro Cat. No. RO1-H5223) domains, were then added to the system and binding measured.
The VH and VL sequences above were formatted into a bivalent monospecific native human full-length IgG1 architecture.

The target is the same in test [4]. Nature of the test: BLI, monovalent format. As for the experimental part: (§1) More specifically, monovalent binding affinity analysis was performed using the Octet^QK 384 (ForteBio) using Fc biosensors. Unlabeled B-body™ is first bound to the Fc biosensor at a concentration to yield approximately 1 nm response (typically 10 to 50 nM protein). The biosensors are then equilibrated in 10× Kinetic Buffer (ForteBio) to establish a baseline. The untagged monomer of each antigen is contacted with the antibody-coated sensors at concentrations ranging from 50 nm to 0.75 nM. The association response and dissociation were monitored and recorded. The resulting Kₒₙ and Koff was fit using the Octet analysis software.
(§2) Next, the binding of the antibody to ROR1 and ROR2 was assessed using the monovalent and bivalent BLI binding assessments as described in Example 24.

Test [5] has as its target T3, extracellular domain of human ROR2 (human, UniProt Q01974 34-403).
T3 construct: bought protein; biotinylated in the bivalent assay format; also called Acro Cat. No. RO2-H52E5
The test can be described thus: BLI, monovalent format. The procedure:
as §1, §2

Test [6] has as its target T2, extracellular domain of human ROR1. Nature of the test: BLI (Octet QK384), monovalent format: antibody captured on Fc biosensor, untagged antigen as analyte. As for the experimental part:
as §1, §2
This is another data set of the same source.

Test [7] addresses T3, extracellular domain of human ROR2. The description is as above. As for the experimental part:
as §1, §2

Test [8] has as its target T2, extracellular domain of human ROR1. The test can be described thus: BLI (Octet QK384), monovalent format: B-body captured on Fc biosensor, untagged antigen as analyte. The procedure: as §1
(§3) Monovalent binding analysis was performed as described above and the antibody was captured with an Fc sensor and contacted with the indicated antigen for the association phase followed by a dissociation phase in buffer only.

The target is the same in test [9]. Nature of the test: BLI (Octet QK384), bivalent format: biotinylated antigen on streptavidin biosensor, 1x2 B-body as analyte. As for the experimental part: (§4) Bivalent binding analysis was performed using the Octet^QK 384 (ForteBio) using streptavidin biosensors. Biotinylated antigen was first bound to the streptavidin biosensor at a concentration to yield approximately 1 nm response (typically 10 to 50 nM biotinylated protein). The biosensors were then equilibrated in 10× Kinetic Buffer (ForteBio) to establish a baseline. The 1×2 B-body™ was contacted with the antigen-coated sensors at concentrations ranging from 50 nm to 0.75 nM. The association response and dissociation were monitored and recorded. The resulting Kₒₙ and Koff was fit using the Octet analysis software.

Test [10] has as its target T4, cynomolgus CD3 delta and epsilon heterodimer (cynomolgus, UniProt Q95LI5 22-117; Q95LI8 22-105).
T4 construct: untagged monomer of the antigen in solution
Nature of the test: BLI (Octet QK384), monovalent format: B-body captured on Fc biosensor, untagged antigen as analyte. As for the experimental part:
as §1

For test [11], the target named is T2, extracellular domain of human ROR1. The test can be described thus: BLI, monovalent format, B-body on Fc biosensor, soluble antigen. The procedure:
as §1, §3

For test [12], the target named is T4, cynomolgus CD3 delta and epsilon …. The test can be described thus: BLI, B-body on Fc biosensor, antigen monomer 50 nM to 0.75 nM. As for the experimental part: as §1
The target in test [13] is T2, extracellular domain of human ROR1. Nature of the test: BLI, bivalent format, biotinylated antigen on streptavidin biosensor, B-body 50 nM to 0.75 nM. As for the experimental part: as §4
A further test deals with T5, CD3 on Jurkat T cells (human, UniProt P07766 23-207; P04234 22-171).
T5 construct: also called human CD3; copies: 1 + 1
T5 sequence (P07766 23-207 limits assumed, chain 1 of 2): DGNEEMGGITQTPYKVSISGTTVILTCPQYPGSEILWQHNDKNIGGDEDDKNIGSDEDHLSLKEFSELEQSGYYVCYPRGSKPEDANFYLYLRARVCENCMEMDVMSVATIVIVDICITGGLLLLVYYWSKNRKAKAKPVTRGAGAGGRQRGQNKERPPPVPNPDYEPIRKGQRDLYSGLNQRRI
T5 sequence (P04234 22-171 limits assumed, chain 2 of 2): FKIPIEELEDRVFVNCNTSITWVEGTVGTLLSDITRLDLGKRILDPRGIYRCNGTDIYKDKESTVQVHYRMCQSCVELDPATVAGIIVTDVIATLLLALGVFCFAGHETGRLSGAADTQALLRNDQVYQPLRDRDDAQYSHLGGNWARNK
Nature of the test: flow cytometry on Jurkat T cells, fluorescently labeled secondary antibody, MFI against antibody concentration. An excerpt:
(§5) In this Example, the binding to human and cynomolgus CD3 was further characterized by assessing cell binding to Jurkat T cells, a Jurkat CD3 knock-out cell line, or a cynomolgus T cell line.
A general note: A flow cytometer gives signals particle by particle.

In test [14] the target is T6, CD3 on a cynomolgus T cell line (cynomolgus).
T6 construct: whole, on cells; also called cynomolgus CD3
T6 sequence (Q95LI5 22-198, chain 1 of 3): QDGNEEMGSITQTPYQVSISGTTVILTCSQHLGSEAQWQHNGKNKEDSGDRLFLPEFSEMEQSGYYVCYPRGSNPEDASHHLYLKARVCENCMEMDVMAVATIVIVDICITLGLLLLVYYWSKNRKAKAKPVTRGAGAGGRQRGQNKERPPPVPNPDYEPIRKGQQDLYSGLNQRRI
T6 sequence (Q95LI8 22-171, chain 2 of 3, further chain): as the sequence (P04234 22-171 limits assumed, chain 2 of 2) above, with I5V, N15K, I20V, S32T, D33N, I34N, T64A, S74N, V83L, H141R counted along it
T6 sequence (Q95LI7 23-181, chain 3 of 3, further chain): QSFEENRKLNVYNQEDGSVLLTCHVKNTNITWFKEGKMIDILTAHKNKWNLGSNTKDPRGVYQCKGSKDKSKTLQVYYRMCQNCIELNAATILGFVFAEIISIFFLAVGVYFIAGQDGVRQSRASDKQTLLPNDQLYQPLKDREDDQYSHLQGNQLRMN
The test can be described thus: flow cytometry on a cynomolgus T cell line, fluorescently labeled secondary antibody, MFI against antibody concentration.
From the text: as §5

T3 sequence (Q01974 34-403 limits assumed): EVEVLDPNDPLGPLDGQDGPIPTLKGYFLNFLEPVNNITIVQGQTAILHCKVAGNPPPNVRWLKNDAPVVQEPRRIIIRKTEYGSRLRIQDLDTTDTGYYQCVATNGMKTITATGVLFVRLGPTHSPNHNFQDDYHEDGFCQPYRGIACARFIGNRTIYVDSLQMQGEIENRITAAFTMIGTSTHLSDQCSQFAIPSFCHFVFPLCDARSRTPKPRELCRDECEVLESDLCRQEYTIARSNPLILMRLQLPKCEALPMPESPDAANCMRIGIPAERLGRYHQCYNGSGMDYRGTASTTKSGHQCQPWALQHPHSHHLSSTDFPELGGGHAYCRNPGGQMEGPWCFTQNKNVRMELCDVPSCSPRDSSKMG
T4 sequence (Q95LI5 22-117, stated change not applied, chain 1 of 2): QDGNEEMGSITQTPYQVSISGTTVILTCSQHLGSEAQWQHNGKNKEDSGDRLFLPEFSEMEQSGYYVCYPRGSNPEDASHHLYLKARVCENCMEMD
T4 sequence (Q95LI8 22-105, stated change not applied, chain 2 of 2): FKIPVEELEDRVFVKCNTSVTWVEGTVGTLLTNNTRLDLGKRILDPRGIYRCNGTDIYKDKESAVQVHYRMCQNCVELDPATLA
T2 sequence (Q01973 30-406 limits assumed): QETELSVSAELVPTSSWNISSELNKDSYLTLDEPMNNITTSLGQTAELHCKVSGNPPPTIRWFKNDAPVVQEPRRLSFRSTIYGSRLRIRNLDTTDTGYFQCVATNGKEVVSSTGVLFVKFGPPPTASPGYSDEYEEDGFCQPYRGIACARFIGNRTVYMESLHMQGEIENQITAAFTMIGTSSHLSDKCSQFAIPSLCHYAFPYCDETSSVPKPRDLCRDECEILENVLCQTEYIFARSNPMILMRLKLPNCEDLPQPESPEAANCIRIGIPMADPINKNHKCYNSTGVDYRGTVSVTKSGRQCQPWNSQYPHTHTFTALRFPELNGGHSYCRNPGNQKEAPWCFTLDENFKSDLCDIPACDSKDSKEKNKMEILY

B1: bivalent bispecific B-Body “BC1” (bispecific antibody)
chain 1: not shown
chain 2: EVQLVESGGGLVQPGGSLRLSCAASGFTFSDYDIHWVRQAPGKGLEWVGDITPYDGTTNYADSVKGRFTISADTSKNTAYLQMNSLRAEDTAVYYCARLVGEIATGFDYWGQGTLVTVSSASPREPQVYTDPPSRDELTKNQVSLTCLVKGFYPSDIAVEWESNGQPENNYKTTPPVLDSDGSFFLYSKLTVDKSRWQQGNVFSCSVMHEALHNHYTQKSLSLSGEC
chain 3: not shown
chain 4: QVQLVESGGGVVQPGRSLRLDCKASGITFSNSGMHWVRQAPGKGLEWVAVIWYDGSKRYYADSVKGRFTISRDNSKNTLFLQMNSLRAEDTAVYYCATNDDYWGQGTLVTVSSASTKGPSVFPLAPSSKSTSGGTAALGCLVKDYFPEPVTVSWNSGALTSGVHTFPAVLQSSGLYSLSSVVTVPSSSLGTQTYICNVNHKPSNTKVDKKVEPPKSC
notes: A:F site for Antigen A, H:L site nivolumab variable domains (PD1)
On to B1, for which the binding result in the test with CTLA4 was “no binding”.

B2: I2A-27 IgG1 (antibody, V domains shown)
VH: EVQLVESGGGLVQPGGSLRLSCAASGFTFKGYYIHWVRQAPGKGLEWVAAIYPYGGSTDYADSVKGRFTISADTSKNTAYLQMNSLRAEDTAVYYCARVYIYGVFDYWGQGTLVTVSS
VL: DIQMTQSPSSLSASVGDRVTITCRASQSVSSAVAWYQQKPGKAPKLLIYSASSLYSGVPSRFSGSRSGTDFTLTISSLQPEDFATYYCQQYYSSPRTFGQGTKVEIKR
notes: bivalent monospecific native human full-length IgG1; the Domain F / Domain A entries end with AS / RT of the junction to the constant domain; also called clone I2-A27; I2-A27 IgG antibody
The term koff denotes the rate constant with which the complex falls apart. A lower koff goes with a long-lived complex. By kon is commonly meant a measure of how fast the partners come together. Read a high kon as fast association. In turn, B2 gave a Kd in test [1] of 2.8 nM. Further, in test [2], the koff was 0.0026 s⁻¹ and the kon amounted to 940000 M⁻¹ s⁻¹. In test [3], this molecule showed a Kd of 4.1 nM, a koff of 0.00185 s⁻¹ and a kon of 511000 M⁻¹ s⁻¹.

B3: I2A-10 D54E Y55Q IgG (antibody, V domains shown)
VH: EVQLVESGGGLVQPGGSLRLSCAASGFTFSSYFIHWVRQAPGKGLEWVAGIYPSEGYTSYADSVKGRFTISADTSKNTAYLQMNSLRAEDTAVYYCARYYVSGMDYWGQGTLVTVSS
VL: DIQMTQSPSSLSASVGDRVTITCRASQSVSSAVAWYQQKPGKAPKLLIYSASSLQSGVPSRFSGSRSGTDFTLTISSLQPEDFATYYCQQYYYYPGTFGQGTKVEIKR
notes: bivalent monospecific IgG; the Domain F / Domain A entries end with AS / RT of the junction to the constant domain; also called I2-A10 D54E Y55Q IgG antibody
Regarding B3, the Kd was 0.7 nM in test [4] and less than 0.001 nM in test [5]. Moreover, the koff in test [6] is 0.00039 s⁻¹; in [7] it was less than 1e-07 s⁻¹. Besides, the kon in [6] worked out at 550000 M⁻¹ s⁻¹; in test [7], 140000 M⁻¹ s⁻¹.

B4: I2-A27 1×2 B-body™ bispecific antibody (ROR1xCD3) (bispecific antibody)
chain 1: DIQMTQSPSSLSASVGDRVTITCRASQSVSSAVAWYQQKPGKAPKLLIYSASSLYSGVPSRFSGSRSGTDFTLTISSLQPEDFATYYCQQYYSSPRTFGQGTKVEIKRTPREPQVYTLPPSRDELTKNQVSLKCLVKGFYPSDIAVEWESNGQPENNYKTTPPVLDSDGSFFLYSKLTVDKSRWQQGNVFSCSVMHEALHNHYTQKSLSLSKSCDKTHTCPPCPAPEAAGGPSVFLFPPKPKDTLMISRTPEVTCVVVDVSHEDPEVKFNWYVDGVEVHNAKTKPREEQYNSTYRVVSVLTVLHQDWLNGKEYKCKVSNKALKAPIEKTISKAKGQPREPQVCTLPPSREEMTKNQVSLSCAVKGFYPSDIAVEWESNGQPENNYKTTPPVLDSDGSFFLVSKLTVDKSRWQQGNVFSCSVMHEALHNHYTQKSLSLSPGK
chain 2: EVQLVESGGGLVQPGGSLRLSCAASGFTFKGYYIHWVRQAPGKGLEWVAAIYPYGGSTDYADSVKGRFTISADTSKNTAYLQMNSLRAEDTAVYYCARVYIYGVFDYWGQGTLVTVSSASPREPQVYTDPPSRDELTKNQVSLTCLVKGFYPSDIAVEWESNGQPENNYKTTPPVLDSDGSFFLYSKLTVDKSRWQQGNVFSCSVMHEALHNHYTQKSLSLSGEC
chain 3: not shown
chain 4: EVQLVESGGGLVQPGGSLRLSCAASGFTFNTYAMNWVRQAPGKGLEWVARIRSKYNNYATYYADSVKGRFSISRDDSKNTAYLQMNSLRAEDTAVYYCVRHGNFGNSYVSWFAYWGQGTLVTVSSASTKGPSVFPLAPSSKSTSGGTAALGCLVKDYFPEPVTVSWNSGALTSGVHTFPAVLQSSGLYSLSSVVTVPSSSLGTQTYICNVNHKPSNTKVDKKVEPPKSC
notes: two ROR sites, one SP34-89 CD3 site; chain 5 is the same as chain 2; also called I2A-27 BC1 1×2
For the molecule B4, the koff is 0.0026 s⁻¹ in [8], 3.5e-05 s⁻¹ in [9] and 0.00032 s⁻¹ in [10]. The kon in test [8] came out at 680000 M⁻¹ s⁻¹; in test [9], 490000 M⁻¹ s⁻¹; in test [10], 110000 M⁻¹ s⁻¹. For the same molecule, the Kd in test [11] worked out at 3.8 nM; in [12], 3 nM; in test [13] it was 0.71 nM.

B5: SP34-89 humanized antibody (antibody, V domains shown)
VH: EVQLVESGGGLVQPGGSLRLSCAASGFTFNTYAMNWVRQAPGKGLEWVARIRSKYNNYATYYADSVKGRFSISRDDSKNTAYLQMNSLRAEDTAVYYCVRHGNFGNSYVSWFAYWGQGTLVTV
VL: QAVVTQEPSLTVSPGGTVTLTCRSSTGAVTTSNYANWVQQKPGQAPRGLIGGTNKRAPWTPARFSGSLLGGKAALTITGAQAEDEADYYCALWYSNLWVFGGGTKLTVL
As a reminder, the EC50 (read off the curve) is the concentration needed to bring the measured effect to its halfway point. As for B5, the “EC50 (read off the curve)” value with CD3 on Jurkat T cells is roughly 0.6 nM; in test [14], roughly 0.7 nM.
